Legend:
mouse colonic mucus = test: Mucus staining on fixed tissues, mouse colon; conditions: fixed tissue, 1 μg/mL
Method: (§1) FIGS. 11A-11C. Mucus staining using Cy5-MUB70 on fixed tissues. (FIG. 11A) Guinea pig colon, (FIG. 11B) rabbit ileum and (FIG. 11C) mouse colon were fixed in PFA 4%. Immunofluorescent staining was performed using Cy5-MUB70 (1 μg/mL) (blue). Actin is stained in red (Phall.-RRX), Muc2 is stained in green (α-Muc2). Observations were performed using a confocal microscope. Bar is 50 μm.
(§2) Ex vivo human colon samples were obtained from Dr. E. Labruyère (Institut Pasteur) and tissue processing was performed as described previously and stored in serum free RMPI media (surgical procedure is described herein). Human mucinous carcinoma formamide fixed samples were obtained from Dr. T. Lazure (Hôpitaux Universitaires Paris-Sud, Kremlin-Bicêtre) and Pr. I. Sobhani (Hôpital Henri Mondor, Créteil). Rabbit colon and ileum samples were collected on naïve New Zealand white rabbits weighting 2.5-3 kg and fixed in PFA 3%. Same procedure was applied on intestine samples collected on guinea pigs (Charles River) and C57/B6 mice (Janvier).
(§3) Following PFA 4% or Carnoy fixation, as indicated, samples were washed in PBS, incubated at 4° C. in PBS containing 12% sucrose for 90 min, then in PBS with 18% sucrose overnight, and frozen in OCT (Sakura) on dry ice. 7 μm sections were obtained using a cryostat CM-3050 (Leica). […]

guinea pig colonic mucus = test: Mucus staining on fixed tissues, guinea pig colon; conditions: fixed tissue, 1 μg/mL
Method: as §1, §2, §3

rabbit ileal mucus = test: Mucus staining on fixed tissues, rabbit ileum; conditions: fixed tissue, 1 μg/mL
Method: FIGS. 8A-8D. (FIG. 8A) Cell toxicity of Cy5-MUB70 tested on HT-29-MTX and Hela epithelial cells. Cell survival was assessed using Sytoxgreen dye on cultures exposed to 1 μg/mL Cy5-MUB70 from 0 to 10 h, as indicated. NS indicates P>0.05 (Student's T-test). (FIG. 8B) Rabbit colonic and ileal mucus staining on fixed tissues (PFA 4%), using Cy5-MUB70 (1 μg/mL) (blue). Actin is stained in red (Phall.-RRX). Bar is 50 μm. (FIG. 8C) Human ex vivo colon sample was incubated for 2 h with 1 μg/mL Cy5-MUB70 in a serum-free media. Resulting fluorescent staining was assessed using a two-photons microscope (see Methods). Z-projection, performed using ImageJ software, allows 3D localization of Cy5-MUB70 fluorescence signal. Bar is 100 μm. Colon scheme: firmly (f) and loosely (I) attached colonic mucus layers are represented at the surface of the epithelium (e). (FIG. 8D) Kinetics of colonic mucus with Cy5-MUB70. […] Human tissue autofluorescence is detected in the same red channel as Cy5.
as §1, with “μm. […]” for “μm.”

[1] = target: T1, mucus of human colonic mucinous carcinomas (Muc2) (Homo sapiens, UniProt Q02817); test: Fluorescent staining of human colonic mucinous carcinoma samples
T1 construct: five different samples collected from patients diagnosed with colonic mucinous carcinomas; from tissue; host or cells: human colonic mucinous carcinoma samples, fixed, paraffin embedded
Method: (§4) FIGS. 24A-24B. Comparative human colonic mucus staining using MUB70-Cy5 on healthy tissues and mucinous carcinomas (Coic et al, JBC, 2012 (41)). Fluorescent staining of human colonic mucus was performed by the addition of 1 μg/mL of the corresponding Cy5-conjugated peptides with Phalloidin-RRX (1:100) on formol fixed, paraffin embedded samples. Image acquisition was performed using a fluorescent confocal microscope (see Methods).
as §2, with “Same procedure was applied on intestine samples collected on guinea pigs (Charles River) and C57/B6 mice (Janvier).” left out
As colonic mucinous carcinomas are characterized by abnormal overproduction of Muc2 in the colon mucosa (40), the inventors have hypothesized that Cy5-MUB70 could be used as a novel fluorescent marker for the diagnosis of this pathology. […] As shown previously on a healthy colon (FIG. 3B), the luminal mucus secreted fraction is detected by Cy5-MUB70 (FIG. 24A, top panel). […]

[2] = target: T2, human colonic mucus and goblet cells (Homo sapiens, UniProt Q02817); test: Fluorescent staining of healthy human colon, formol fixed, paraffin embedded samples
T2 construct: Segments of human colon (ascending, descending and sigmoid colon) were obtained from fully informed patients undergoing surgery; from tissue; host or cells: healthy human colon segments (live explants, mucus collected from them, Carnoy- or formol-fixed sections)
Method: FIG. 22. Schematic description of the Cy5-MUB40-1, Cy5-MUB40-2, Cy5-MUB40-3, Cy5-MUB40-4 peptides (SEQ ID NOS 62 to 65). Fluorescent staining of human colonic mucus was performed by the addition of 1 μg/mL of the corresponding Cy5-conjugated peptides with Phalloidin-RRX (1:100) on formol fixed, paraffin embedded samples. Image acquisition was performed using a fluorescent confocal microscope (see Methods).
FIG. 23 Comparative staining analysis of human colonic goblet cells using Cy5-MUB70 and Cy5-MUB40-1. Fluorescent staining of human colonic mucus was performed by the addition of 1 μg/mL of the corresponding Cy5-conjugated peptides with Phalloidin-RRX (1:100) on formol fixed, paraffin embedded samples. Image acquisition was performed using a fluorescent confocal microscope (see Methods).
as §4
As colonic mucinous carcinomas are characterized by abnormal overproduction of Muc2 in the colon mucosa (40), the inventors have hypothesized that Cy5-MUB70 could be used as a novel fluorescent marker for the diagnosis of this pathology. […] As shown previously on a healthy colon (FIG. 3B), the luminal mucus secreted fraction is detected by Cy5-MUB70 (FIG. 24A, top panel). […] This observation might be the consequence of a higher level of mucus compaction, resulting in a lower accessibility for MUB70 to bind Muc2. […] Cy5-MUB70 has been validated as a potent innovative diagnostic tool for colonic mucinous carcinoma detection and might be optimized with alternative markers (e.g. biotin) for practical clinical applications.

[3] = tested on: neutrophiles (white blood cells) in rabbit ileum sub-mucosa; test: Staining of neutrophiles in rabbit ileum sub-mucosa; conditions: PFA 4% fixed rabbit ileum; colocalized with α-elastase (PMN) signal
Method: FIG. 13. Staining of individual neutrophiles (white blood cells) in rabbit ileum sub-mucosa. Cy5-MUB70 was incubated on PFA 4% fixed tissues. Signal was colocalized with an α-elastase (PMN) signal. (Primary antibody is α-elastase (PMN) 1:400 and secondary antibody is anti-mouse GFP 1:400, MUBCys5 1:400, Phalloidin-RRX 1:400). […] In particular, granules staining is achieved.

B1: Cy5-MUB70: Cy5-labelled MUB70 polypeptide, labelled via Cy5 maleimide on N-terminal cysteine (conjugate)
peptide: CVHVQYIDGETDQMLRQDDLDGYTDETIPYSTAEGIKKFEGDGYELFKDNFPAGEKFDNDDTNDQFYTVIF
colonic mucus staining (mouse colonic mucus): not stained
colonic mucus staining (guinea pig colonic mucus): confirmed
ileal mucus staining (rabbit ileal mucus): negative results
staining of colonic mucinous carcinoma samples ([1]; five samples from patients, 1 μg/mL): specific staining was observed within the mucus accumulation areas
colocalization with Muc2 in colonic mucinous carcinomas ([1]; mucus accumulation within the colonic mucosa, associated with tumor cells): colocalizes with the presence of Muc2
mucosal staining in healthy colon tissues ([2]; colonic mucosa of healthy colon tissues from the same patients): no mucosal staining was observed
luminal mucus secreted fraction staining in healthy colon ([2]; healthy colon, fixed): detected
goblet cells binding ([2]; human colonic goblet cells, fixed samples, 1 μg/mL): not recognized
neutrophile staining in tissue [3]: binding specifically a neutrophile component

Reference: patent US10138280B2, “Polypeptides targeting glycosylated MUC2 proteins, methods of synthesis, their nucleic acids and uses thereof” (INSTITUT PASTEUR, priority 2011, dated 2018)
